Here are results for three molecules from US20240182561A1 (Regeneron, published 2024).

Assay [1] deals with T1, human CACNG1 expressed on cells (human, UniProt Q06432 1-222). Kind of assay: cell-based or functional assay.
In assay [2] the target is T2, mouse CACNG1 expressed on cells (mouse, UniProt O70578 1-223).
T2 construct: whole, on cells; Transfected in HEK293/mCACNG1; endogenous in C2C12 myotubes and wildtype mouse myofibers; Each row names the cell type under assay; also called mCACNG1; HEK293/mCACNG1
T2 sequence (looked up): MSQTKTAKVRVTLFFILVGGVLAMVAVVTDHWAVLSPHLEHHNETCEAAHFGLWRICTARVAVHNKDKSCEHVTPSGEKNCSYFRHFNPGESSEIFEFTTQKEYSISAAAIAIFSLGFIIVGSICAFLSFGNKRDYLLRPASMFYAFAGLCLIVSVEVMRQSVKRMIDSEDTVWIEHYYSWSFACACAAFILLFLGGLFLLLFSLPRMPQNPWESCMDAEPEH
As to the kind of experiment: biosensor conjugate imaging (AF647), 6.7 nM, C2C12 mouse myotubes. The procedure:
The growth media was changed to MyoTonic Differentiation Media (Cook Myosite Cat #MD-5555) and replaced every 2 days. C2C12 mouse myoblasts were maintained in DMEM with 10% FBS and 1% penicillin-streptomycin supplement and grown in a 37° C. incubator with 5% CO₂. […] After 24 hours, growth media was replaced with differentiation media (DMEM with 2% horse serum) and placed in a 37° C. incubator with 7.5% CO₂.

The target of assay [3] is T1, human CACNG1 expressed on cells. Kind of assay: cell-based or functional assay. This is another data set of the same source.
For assay [4] the target is unchanged. As to the kind of experiment: cell-based or functional assay. This is another data set of the same source.
For assay [5] the target is unchanged. Kind of assay: live myotubes (human myotubes per paragraph 866) incubated with antibody, detection with Alexa 647-conjugated F(ab')2 secondary antibody, Hoechst counterstain, fluorescence imaging; titration 100 to 0.02 nM and 0 nM.
Assay [6] addresses T2, mouse CACNG1 expressed on cells. As to the kind of experiment: imaging cell binding, HEK293/mCACNG1. A digest of the protocol: (§1)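 Relative anti-CACNG1 antibody binding was measured by imaging, with relative fluorescence units as the output. Cells were fixed on ice with Hoechst before imaging at 10×.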
Assay [7] has the same target. Kind of assay: cell-based or functional assay.
For assay [8], the target named is T1, human CACNG1 expressed on cells. As to the kind of experiment: cell-based or functional assay. This is another data set of the same source.
Assay [9] addresses T2, mouse CACNG1 expressed on cells. Kind of assay: imaging cell binding, C2C12 mouse myotubes. A digest of the protocol: as §1
The target in assay [10] is T1, human CACNG1 expressed on cells. As to the kind of experiment: cell-based or functional assay. This is another data set of the same source.
The target is the same in assay [11]. Kind of assay: cell-based or functional assay. This is another data set of the same source.
Assay [12] shares this target. As to the kind of experiment: imaging cell binding, HuSKM myotubes. The essentials: as §1
For assay [13] the target is unchanged. Kind of assay: cell-based or functional assay. This is another data set of the same source.
For assay [14] the target is unchanged. As to the kind of experiment: imaging cell binding, HEK293/hCACNG1. The essentials: as §1

T1 sequence (Q06432 whole entry): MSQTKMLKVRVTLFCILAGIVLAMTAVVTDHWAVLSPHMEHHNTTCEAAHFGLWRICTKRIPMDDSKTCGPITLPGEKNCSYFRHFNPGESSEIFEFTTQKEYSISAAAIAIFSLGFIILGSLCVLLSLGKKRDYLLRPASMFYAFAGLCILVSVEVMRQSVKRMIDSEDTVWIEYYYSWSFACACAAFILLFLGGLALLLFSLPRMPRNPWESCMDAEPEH

B1: REGN14570 (antibody, human IgG1, kappa, N297Q)
heavy: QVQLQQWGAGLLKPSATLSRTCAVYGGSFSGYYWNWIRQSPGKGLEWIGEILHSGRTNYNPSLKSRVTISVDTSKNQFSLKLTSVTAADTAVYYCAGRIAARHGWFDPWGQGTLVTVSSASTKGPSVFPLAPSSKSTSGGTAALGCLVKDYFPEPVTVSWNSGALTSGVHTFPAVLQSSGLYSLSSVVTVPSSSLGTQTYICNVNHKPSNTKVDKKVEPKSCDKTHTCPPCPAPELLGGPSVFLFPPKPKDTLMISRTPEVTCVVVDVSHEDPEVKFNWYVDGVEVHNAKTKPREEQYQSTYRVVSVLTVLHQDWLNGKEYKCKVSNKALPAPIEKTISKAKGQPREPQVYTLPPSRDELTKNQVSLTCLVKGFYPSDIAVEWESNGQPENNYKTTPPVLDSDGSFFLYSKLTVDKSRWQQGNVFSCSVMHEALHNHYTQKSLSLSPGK
light: DIQMTQSPSSVSTSVGDRVTISCRASQDIRKWLAWYQQKPGKAPKLLIYATSSLQSGVPSRFSGSGSGTDFTLTISSLQPEDFATYFCQQANSFPFTFGQGTKLEIKRTVAAPSVFIFPPSDEQLKSGTASVVCLLNNFYPREAKVQWKVDNALQSGNSQESVTEQDSKDSTYSLSSTLTLSKADYEKHKVYACEVTHQGLSSPVTKSFNRGEC
modifications: conjugated to the M378-Biosensor probe (Example 15) or to budesonide linker-payload M404-M3123, DAR 4.1 (Example 14); attachment residues not stated for these lots
notes: hIgG1 N297Q; Tested only as conjugates; also called REGN14570-M378-Biosensor; REGN14570-M404-M3123
In the case of B1, the “EC50 of androgen receptor luciferase reporter activation (RLU) by the DHT conjugate REGN14570-M3004 in hCACNG1.AR.Luc LNCaP cells, 72 hours; concentration adjusted for DAR” value in assay [1] amounted to 6.65 nM. The binding result in assay [2] is recorded as “binds”. Also, in assay [3], the “EC50 of androgen receptor luciferase reporter activation (RLU) by the DHT conjugate REGN14570-M3004 in hCACNG1.AR.Luc LNCaP cells, 24 hours; concentration adjusted for DAR” value amounted to 2 nM. Also, the “EC50 of androgen receptor luciferase reporter activation (RLU) by the DHT conjugate REGN14570-M3004 in hCACNG1.AR.Luc LNCaP cells, 48 hours; concentration adjusted for DAR” value in assay [4] is 5.83 nM.

B2: REGN7854 (antibody, human IgG4 S228P, kappa, V domains shown)
VH: QVQLVQSGAEVKKPGASVKVSCKASGYAFTTYGITWVRQAPGQGLEWMGWISAYNGNTNYAEKVQGRFTMTTDTSTNTAYMELRSLRSDDTAVYFCARKGHYGSGTYYNPFGFDFWGQGTMVTVSS
VL: EIVLTQSPGTLSLSPGERATLSCRASQSVSSSYLAWYQQKPGQAPRLLIYGASSRATGIPDRFSGSGSGTDFTLTISRLEPEDFALYFCQQYYGSPWTFGQGTKVEIKR
notes: also called CACNG1 Ab
Take B2: the binding result in [5] is “binds”.

B3: REGN5972 (antibody, V domains shown)
VH: QVQLVESGGGVVQPGRSLRLSCTASGFTFRSYGMHWVRQAPGKGLEWVSVIWIDGNNIYYADSVKGRFTISRDNSKNTLYLQMDSLRAEDTAVYYCARRLAITSAAPFDYWGQGTLVTVSS
VL: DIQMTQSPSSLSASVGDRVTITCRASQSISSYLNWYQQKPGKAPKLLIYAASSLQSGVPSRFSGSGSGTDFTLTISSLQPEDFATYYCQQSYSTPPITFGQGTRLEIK
notes: also called H4H31265P2/REGN5972; CACNG1 hIgG1 antibody
As usually defined, the EC50 is the concentration needed to bring the measured effect to its halfway point. High values mean a less potent agent, low ones a more potent agent. Turning to B3, in assay [6], the EC50 was over 100 nM and the S/N amounted to 5.3 fold. In [7], the “% KILL, indirect cell killing, C2C12” value amounted to 0%; the “% KILL, indirect cell killing, HEK293/mCACNG1” value amounted to 11%; the “EC50/IC50, indirect cell killing, C2C12” value was over 10 nM; the “EC50/IC50, indirect cell killing, HEK293/mCACNG1” value is over 1 nM. Further, in assay [8], the “% KILL, indirect cell killing, HEK293/hCACNG1” value amounted to 95.4%; the “% KILL, indirect cell killing, HuSKM” value came out at 97.4%; the “EC50/IC50, indirect cell killing, HEK293/hCACNG1” value stood at 0.00139 nM; the “EC50/IC50, indirect cell killing, HuSKM” value is 0.585 nM. The S/N in [9] was found to be 1.6 fold. In assay [10], the “EC50 of androgen receptor luciferase reporter activation (RLU) by the DHT conjugate REGN5972-M3004 in hCACNG1.AR.Luc LNCaP cells, 24 hours; concentration adjusted for DAR” value was 19 nM. In [11], the “EC50 of androgen receptor luciferase reporter activation (RLU) by the DHT conjugate REGN5972-M3004 in hCACNG1.AR.Luc LNCaP cells, 48 hours; concentration adjusted for DAR” value stood at 6.49 nM. Also, in assay [12], a half-maximal response (EC50) required 2.9 nM and the S/N was found to be 313 fold. In addition, the “EC50 of androgen receptor luciferase reporter activation (RLU) by the DHT conjugate REGN5972-M3004 in hCACNG1.AR.Luc LNCaP cells, 72 hours; concentration adjusted for DAR” value in assay [13] was determined as 7.79 nM. Further, in assay [14], the EC50 worked out at 6.6 nM and the S/N was determined as 172 fold.
